Reference: the supplement of paper PMC10567573

B1: CPOX (parent)
chain: HAPTIHFNYRYFEVEEADGNKQWW
B2: DFFB (parent)
chain: KLNCDPSRIYKPQTRLKRKQPVRK

Variants of: B1
Assay: protein stability index of a GFP-peptide fusion (GPS, HEK-293T) (PSI 1-6); higher = more stable
Conditions: c terminus: a fixed tail appended
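Note: lentivirally expressed fusions sorted by FACS into six bins by GFP to DsRed ratio, PSI derived from sequencing read proportions per bin multiplied by bin number.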

Q: For HARTIHFNYRYFEVEEADGNKQWW [P3R], which protein stability index is on record?
A: 2.69

Q: For HAATIHFNYRYFEVEEADGNKQWW [P3A], which protein stability index is on record?
A: 1.97

Q: With HAETIHFNYRYFEVEEADGNKQWW [P3E] as the variant, how does the protein stability index read?
A: 1.99

Q: Which protein stability index does the source give for HATTIHFNYRYFEVEEADGNKQWW [P3T] here?
A: 2.38

Q: With HAITIHFNYRYFEVEEADGNKQWW [P3I] as the variant, how does the protein stability index read?
A: 2.92

Q: Which protein stability index does the source give for HAFTIHFNYRYFEVEEADGNKQWW [P3F] here?
A: 2.6

Q: For HAKTIHFNYRYFEVEEADGNKQWW [P3K], which protein stability index is on record?
A: 1.93

Q: For HAWTIHFNYRYFEVEEADGNKQWW [P3W], which protein stability index is on record?
A: 1.17

Q: For HASTIHFNYRYFEVEEADGNKQWW [P3S], which protein stability index is on record?
A: 1.99

Q: For HAMTIHFNYRYFEVEEADGNKQWW [P3M], which protein stability index is on record?
A: 1.97

Q: With HACTIHFNYRYFEVEEADGNKQWW [P3C] as the variant, how does the protein stability index read?
A: 1.62

Q: With HAVTIHFNYRYFEVEEADGNKQWW [P3V] as the variant, how does the protein stability index read?
A: 1.8

Q: With HADTIHFNYRYFEVEEADGNKQWW [P3D] as the variant, how does the protein stability index read?
A: 2.67

Q: For HAQTIHFNYRYFEVEEADGNKQWW [P3Q], which protein stability index is on record?
A: 1.65

Q: Which protein stability index does the source give for HALTIHFNYRYFEVEEADGNKQWW [P3L] here?
A: 2.49

Q: With HAHTIHFNYRYFEVEEADGNKQWW [P3H] as the variant, how does the protein stability index read?
A: 2.2

Q: With HAGTIHFNYRYFEVEEADGNKQWW [P3G] as the variant, how does the protein stability index read?
A: 2.85

Q: With HAYTIHFNYRYFEVEEADGNKQWW [P3Y] as the variant, how does the protein stability index read?
A: 2.39

Q: For HANTIHFNYRYFEVEEADGNKQWW [P3N], which protein stability index is on record?
A: 2.09

Q: Which protein stability index does the source give for HFPTIHFNYRYFEVEEADGNKQWW [A2F] here?
A: 2.26

Q: For HYPTIHFNYRYFEVEEADGNKQWW [A2Y], which protein stability index is on record?
A: 2.33

Q: With HLPTIHFNYRYFEVEEADGNKQWW [A2L] as the variant, how does the protein stability index read?
A: 2.11

Q: With HSPTIHFNYRYFEVEEADGNKQWW [A2S] as the variant, how does the protein stability index read?
A: 2.78

Q: For HGPTIHFNYRYFEVEEADGNKQWW [A2G], which protein stability index is on record?
A: 2.43

Q: With HVPTIHFNYRYFEVEEADGNKQWW [A2V] as the variant, how does the protein stability index read?
A: 2.85

Q: With HRPTIHFNYRYFEVEEADGNKQWW [A2R] as the variant, how does the protein stability index read?
A: 2.73

Q: With HMPTIHFNYRYFEVEEADGNKQWW [A2M] as the variant, how does the protein stability index read?
A: 2.16

Q: Which protein stability index does the source give for HNPTIHFNYRYFEVEEADGNKQWW [A2N] here?
A: 2.46

Q: Which protein stability index does the source give for HIPTIHFNYRYFEVEEADGNKQWW [A2I] here?
A: 1.73

Q: Which protein stability index does the source give for HDPTIHFNYRYFEVEEADGNKQWW [A2D] here?
A: 2.94

Q: With HWPTIHFNYRYFEVEEADGNKQWW [A2W] as the variant, how does the protein stability index read?
A: 2.02

Q: For HHPTIHFNYRYFEVEEADGNKQWW [A2H], which protein stability index is on record?
A: 2.44

Q: Which protein stability index does the source give for HCPTIHFNYRYFEVEEADGNKQWW [A2C] here?
A: 1.99

Q: With HQPTIHFNYRYFEVEEADGNKQWW [A2Q] as the variant, how does the protein stability index read?
A: 3.31

Q: With HKPTIHFNYRYFEVEEADGNKQWW [A2K] as the variant, how does the protein stability index read?
A: 2.38

Q: Which protein stability index does the source give for HEPTIHFNYRYFEVEEADGNKQWW [A2E] here?
A: 3.45

Q: For HPPTIHFNYRYFEVEEADGNKQWW [A2P], which protein stability index is on record?
A: 2.34

Q: With HTPTIHFNYRYFEVEEADGNKQWW [A2T] as the variant, how does the protein stability index read?
A: 2.5

Q: For HAPEIHFNYRYFEVEEADGNKQWW [T4E], which protein stability index is on record?
A: 2.29

Q: For HAPCIHFNYRYFEVEEADGNKQWW [T4C], which protein stability index is on record?
A: 2.01

Q: With HAPAIHFNYRYFEVEEADGNKQWW [T4A] as the variant, how does the protein stability index read?
A: 2.38

Q: For HAPDIHFNYRYFEVEEADGNKQWW [T4D], which protein stability index is on record?
A: 2.96

Q: Which protein stability index does the source give for WAPTIHFNYRYFEVEEADGNKQWW [H1W] here?
A: 2.62

Q: For QAPTIHFNYRYFEVEEADGNKQWW [H1Q], which protein stability index is on record?
A: 2.96

Q: With CAPTIHFNYRYFEVEEADGNKQWW [H1C] as the variant, how does the protein stability index read?
A: 2.15

Q: For IAPTIHFNYRYFEVEEADGNKQWW [H1I], which protein stability index is on record?
A: 2.05

Q: For PAPTIHFNYRYFEVEEADGNKQWW [H1P], which protein stability index is on record?
A: 2.62

Q: With LAPTIHFNYRYFEVEEADGNKQWW [H1L] as the variant, how does the protein stability index read?
A: 1.92

Q: With AAPTIHFNYRYFEVEEADGNKQWW [H1A] as the variant, how does the protein stability index read?
A: 2.46

Q: For SAPTIHFNYRYFEVEEADGNKQWW [H1S], which protein stability index is on record?
A: 2.89

Q: Which protein stability index does the source give for DAPTIHFNYRYFEVEEADGNKQWW [H1D] here?
A: 1.84

Q: Which protein stability index does the source give for TAPTIHFNYRYFEVEEADGNKQWW [H1T] here?
A: 2.91

Q: With NAPTIHFNYRYFEVEEADGNKQWW [H1N] as the variant, how does the protein stability index read?
A: 2.54

Q: Which protein stability index does the source give for EAPTIHFNYRYFEVEEADGNKQWW [H1E] here?
A: 2.42

Q: With VAPTIHFNYRYFEVEEADGNKQWW [H1V] as the variant, how does the protein stability index read?
A: 2.69

Q: For RAPTIHFNYRYFEVEEADGNKQWW [H1R], which protein stability index is on record?
A: 3.24

Q: Which protein stability index does the source give for KAPTIHFNYRYFEVEEADGNKQWW [H1K] here?
A: 2.37

Q: With GAPTIHFNYRYFEVEEADGNKQWW [H1G] as the variant, how does the protein stability index read?
A: 3.62

Q: For MAPTIHFNYRYFEVEEADGNKQWW [H1M], which protein stability index is on record?
A: 2.15

Variants of: B2
Assay: as above
Conditions: c terminus: a fixed tail appended

Q: With KLNCDPSRIYKPQTRLKRKQPVLK [R23L] as the variant, how does the protein stability index read?
A: 2.81

Q: For KLNCDPSRIYKPQTRLKRKQPVDK [R23D], which protein stability index is on record?
A: 3.83

Q: With KLNCDPSRIYKPQTRLKRKQPVCK [R23C] as the variant, how does the protein stability index read?
A: 3.21

Q: Which protein stability index does the source give for KLNCDPSRIYKPQTRLKRKQPVIK [R23I] here?
A: 3.53

Q: With KLNCDPSRIYKPQTRLKRKQPVTK [R23T] as the variant, how does the protein stability index read?
A: 3.77

Q: With KLNCDPSRIYKPQTRLKRKQPVVK [R23V] as the variant, how does the protein stability index read?
A: 3.25

Q: For KLNCDPSRIYKPQTRLKRKQPVKK [R23K], which protein stability index is on record?
A: 3.01

Q: With KLNCDPSRIYKPQTRLKRKQPVEK [R23E] as the variant, how does the protein stability index read?
A: 3.34

Q: For KLNCDPSRIYKPQTRLKRKQPVPK [R23P], which protein stability index is on record?
A: 3.84

Q: With KLNCDPSRIYKPQTRLKRKQPVSK [R23S] as the variant, how does the protein stability index read?
A: 3.49

Q: With KLNCDPSRIYKPQTRLKRKQPVHK [R23H] as the variant, how does the protein stability index read?
A: 3.43

Q: For KLNCDPSRIYKPQTRLKRKQPVMK [R23M], which protein stability index is on record?
A: 3.1

Q: For KLNCDPSRIYKPQTRLKRKQPVQK [R23Q], which protein stability index is on record?
A: 3.9

Q: Which protein stability index does the source give for KLNCDPSRIYKPQTRLKRKQPVAK [R23A] here?
A: 3.39

Q: Which protein stability index does the source give for KLNCDPSRIYKPQTRLKRKQPVGK [R23G] here?
A: 3.35

Q: With KLNCDPSRIYKPQTRLKRKQPVYK [R23Y] as the variant, how does the protein stability index read?
A: 3.48

Q: Which protein stability index does the source give for KLNCDPSRIYKPQTRLKRKQPVWK [R23W] here?
A: 2.59

Q: For KLNCDPSRIYKPQTRLKRKQPVRC [K24C], which protein stability index is on record?
A: 2.96

Q: With KLNCDPSRIYKPQTRLKRKQPVRV [K24V] as the variant, how does the protein stability index read?
A: 2.49

Q: For KLNCDPSRIYKPQTRLKRKQPVRG [K24G], which protein stability index is on record?
A: 3.23

Q: Which protein stability index does the source give for KLNCDPSRIYKPQTRLKRKQPVRR [K24R] here?
A: 3.96

Q: Which protein stability index does the source give for KLNCDPSRIYKPQTRLKRKQPVRH [K24H] here?
A: 3.15

Q: With KLNCDPSRIYKPQTRLKRKQPVRQ [K24Q] as the variant, how does the protein stability index read?
A: 3.18

Q: Which protein stability index does the source give for KLNCDPSRIYKPQTRLKRKQPVRL [K24L] here?
A: 2.87

Q: For KLNCDPSRIYKPQTRLKRKQPVRA [K24A], which protein stability index is on record?
A: 4.04

Q: For KLNCDPSRIYKPQTRLKRKQPVRY [K24Y], which protein stability index is on record?
A: 3.11

Q: With KLNCDPSRIYKPQTRLKRKQPVRM [K24M] as the variant, how does the protein stability index read?
A: 3.11

Q: With KLNCDPSRIYKPQTRLKRKQPVRI [K24I] as the variant, how does the protein stability index read?
A: 3.03

Q: For KLNCDPSRIYKPQTRLKRKQPVRN [K24N], which protein stability index is on record?
A: 3.44

Q: With KLNCDPSRIYKPQTRLKRKQPVRT [K24T] as the variant, how does the protein stability index read?
A: 4.04

Q: With KLNCDPSRIYKPQTRLKRKQPVRS [K24S] as the variant, how does the protein stability index read?
A: 4.02

Q: Which protein stability index does the source give for KLNCDPSRIYKPQTRLKRKQPVRE [K24E] here?
A: 3.99

Q: For KLNCDPSRIYKPQTRLKRKQPVRF [K24F], which protein stability index is on record?
A: 2.7

Q: With KLNCDPSRIYKPQTRLKRKQPVRD [K24D] as the variant, how does the protein stability index read?
A: 3.56

Q: Which protein stability index does the source give for KLNCDPSRIYKPQTRLKRKQPVRP [K24P] here?
A: 3.32
